According to patent publication US20250145730A1 (SHANGHAI BAO PHARMACEUTICALS, published 2025):

Molecular target: T1, human FcRn (human, UniProt P55899 24-297; P61769 21-119)
T1 construct: also called hFcRn
Test: BLI, acidic conditions, against the wild-type antibody

T1 sequence (P55899 24-297 limits assumed, chain 1 of 2): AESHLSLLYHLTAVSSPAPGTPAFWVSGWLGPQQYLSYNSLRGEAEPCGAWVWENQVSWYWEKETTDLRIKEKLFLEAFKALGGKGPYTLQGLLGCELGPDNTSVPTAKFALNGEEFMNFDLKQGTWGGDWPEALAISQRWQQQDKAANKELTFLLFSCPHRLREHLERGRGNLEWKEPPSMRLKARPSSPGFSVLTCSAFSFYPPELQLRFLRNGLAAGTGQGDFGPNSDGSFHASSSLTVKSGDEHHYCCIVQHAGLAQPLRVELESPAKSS
T1 sequence (P61769 21-119 limits assumed, chain 2 of 2): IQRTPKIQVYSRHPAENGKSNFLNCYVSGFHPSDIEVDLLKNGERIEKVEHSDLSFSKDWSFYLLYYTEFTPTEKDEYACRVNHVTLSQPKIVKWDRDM

B1: Antibody 8 (antibody, human IgG1, kappa)
heavy: not shown
light: DIVMTQSHLSMSTSLGDPVSITCKASQDVSTVVAWYQQKPGQSPRRLIYSASYRYIGVPDRFTGSGAGTDFTFTISSVQAEDLAVYYCQQHYSPPYTFGGGTKLEIKRTVAAPSVFIFPPSDEQLKSGTASVVCLLNNFYPREAKVQWKVDNALQSGNSQESVTEQDSKDSTYSLSSTLTLSKADYEKHKVYACEVTHQGLSSPVTKSFNRGEC
notes: also called antibody 3-Fucose
  fold of the wild-type antibody's affinity: ≤ 3 fold
